# In patent US20250019454A1 (BIOCYTOGEN PHARMACEUTICALS BEIJING, published 2025):
# Positions count from the first letter of the chain named.
# T1: ΔCRD2-TNFR2 protein (with CRD2 deletion), on CHO-S cells (human, UniProt P20333 23-461)
# T1 construct: also called CHO-SΔCRD2-TNFR2
# T1 sequence: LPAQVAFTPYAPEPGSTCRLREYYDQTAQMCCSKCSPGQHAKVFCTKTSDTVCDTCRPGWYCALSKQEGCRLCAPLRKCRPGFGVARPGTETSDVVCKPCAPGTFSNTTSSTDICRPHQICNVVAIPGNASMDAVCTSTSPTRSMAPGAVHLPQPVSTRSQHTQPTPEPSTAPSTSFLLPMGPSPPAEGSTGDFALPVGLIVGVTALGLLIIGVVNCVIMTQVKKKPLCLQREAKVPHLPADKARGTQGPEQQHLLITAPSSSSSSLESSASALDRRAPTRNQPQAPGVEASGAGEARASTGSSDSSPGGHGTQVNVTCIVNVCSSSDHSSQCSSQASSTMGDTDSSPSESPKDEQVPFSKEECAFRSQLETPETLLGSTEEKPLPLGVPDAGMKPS
# T2: human TNFR2 (expressed on cells) (human, UniProt P20333 23-461)
# T2 construct: also called hTNFR2; human TNF Receptor 2
# T2 sequence: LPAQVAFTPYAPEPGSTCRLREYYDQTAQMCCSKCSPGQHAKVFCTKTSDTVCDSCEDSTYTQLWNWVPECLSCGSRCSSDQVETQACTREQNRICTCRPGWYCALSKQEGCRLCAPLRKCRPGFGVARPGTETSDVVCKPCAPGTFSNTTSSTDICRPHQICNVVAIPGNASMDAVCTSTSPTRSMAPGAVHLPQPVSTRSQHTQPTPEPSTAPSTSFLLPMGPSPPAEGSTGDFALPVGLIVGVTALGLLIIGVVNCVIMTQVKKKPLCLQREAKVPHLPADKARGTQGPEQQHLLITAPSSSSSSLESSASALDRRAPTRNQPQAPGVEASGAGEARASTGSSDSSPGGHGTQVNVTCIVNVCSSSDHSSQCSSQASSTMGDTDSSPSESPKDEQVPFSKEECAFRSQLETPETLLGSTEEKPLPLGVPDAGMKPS
# T3: mouse TNFR2 (on transfected CHO cells) (mouse, UniProt P25119 23-474)
# T3 construct: also called mTNFR2
# T3 sequence: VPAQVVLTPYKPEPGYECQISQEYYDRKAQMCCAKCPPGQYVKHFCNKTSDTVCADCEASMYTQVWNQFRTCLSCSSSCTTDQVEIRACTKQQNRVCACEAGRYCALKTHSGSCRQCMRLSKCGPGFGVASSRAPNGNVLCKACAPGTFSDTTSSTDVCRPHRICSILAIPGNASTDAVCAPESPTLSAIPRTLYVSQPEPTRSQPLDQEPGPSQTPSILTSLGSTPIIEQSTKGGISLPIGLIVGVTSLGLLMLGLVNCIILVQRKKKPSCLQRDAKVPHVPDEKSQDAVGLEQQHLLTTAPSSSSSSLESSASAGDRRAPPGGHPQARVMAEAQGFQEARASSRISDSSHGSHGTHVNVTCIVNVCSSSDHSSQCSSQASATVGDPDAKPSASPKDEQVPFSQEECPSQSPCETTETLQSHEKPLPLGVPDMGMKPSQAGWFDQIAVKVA
# T4: dog (Canine) TNFR2 (on transfected CHO cells) (dog)
# T4 construct: also called dTNFR2
# T4 chain: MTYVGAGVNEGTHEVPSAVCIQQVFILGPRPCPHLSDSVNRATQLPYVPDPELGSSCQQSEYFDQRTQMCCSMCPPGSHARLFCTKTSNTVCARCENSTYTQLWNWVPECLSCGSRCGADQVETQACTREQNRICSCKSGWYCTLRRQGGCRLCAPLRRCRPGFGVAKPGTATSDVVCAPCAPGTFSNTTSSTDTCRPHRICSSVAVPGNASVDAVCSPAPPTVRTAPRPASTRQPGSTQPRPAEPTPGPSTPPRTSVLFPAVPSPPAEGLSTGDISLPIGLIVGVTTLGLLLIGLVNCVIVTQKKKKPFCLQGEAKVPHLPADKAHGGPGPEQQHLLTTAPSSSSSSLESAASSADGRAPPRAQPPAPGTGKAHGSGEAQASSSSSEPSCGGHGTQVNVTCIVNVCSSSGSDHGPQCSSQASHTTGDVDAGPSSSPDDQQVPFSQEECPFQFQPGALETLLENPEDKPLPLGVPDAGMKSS
# B1: BC-1A8-IgG1 (antibody, V domains shown)
# VH: QVQLQQSGPGLVKPSQTLSLTCAISGDSVSSNSAAWNWIRQSPSRGLEWLGRTYYRSKWYNDYALSVKSRITINPETSKNQFSLQLNSVTPEDTAVYYCAREDGVGGTKDYFDYWGQGTLVTVSS
# VL: DIQMTQSPSSLSASVGDRVTITCQASQDIDNYLNWYQQKPGKAPKLLIYDVSNLEIGVPSRFSGSGSGTDFTFTISSLQPEDIATYYCQQYDNLPLTFGQGTRLEIK
# notes: Fully human VH/VL joined to the human IgG1 subtype, kappa light chain (RenMab mice)
# B2: BC-1F4-IgG1 (antibody, V domains shown)
# VH: B1 VH with N32D, A34S, A64T, L65V, E76D
# VL: B1 VL with D30S, V51A, I56T, S76N, I83F, Y87F, L96I
# notes: Human VH/VL joined to the human IgG1 subtype
# B3: BC-1F10-IgG1 (antibody, V domains shown)
# VH: QVQLQQWGAGLLKPSETLSLICAVYDGSFSGDYWSWIRQPPGKGLEWIGEINHSGSTNYNPSLKSRVTISVDTSKNQFSLKLSSVTAADTAVYYCARGHWNYDYYYGMDVWGQGTTVTVSS
# VL: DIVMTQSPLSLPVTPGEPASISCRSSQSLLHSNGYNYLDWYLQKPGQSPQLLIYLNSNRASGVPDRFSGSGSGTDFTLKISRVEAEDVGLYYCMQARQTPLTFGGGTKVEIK
# notes: as for B2
# B4: BC-1C3-IgG1 (antibody, V domains shown)
# VH: QVQLVESGGGVVHPGKSLRLSCAASGFTFNIYGMHWVRQAPGKGLEWVALISYDGNDKYFADSVKGRFTISRDNSKNTLYLQMNSLRAEDTAVYYCAKAVDTAVVTFFDYWGQGTLVTVSS
# VL: EIVMTQSPVTLSVSPGERATLSCRASQSVSSNLAWYQQKPGQAPRLLIYSASTRATGIPARFSGSGSGTEFTLTISSLQSEDLAVYYCQQYSNWPFTFGPGTKVDIK
# notes: as for B2
# B5: BC-1B6-IgG1 (antibody, V domains shown)
# VH: QVQLVESGGGVVQPGRSLRLSCAASGFTFSNFGMHWVRQAPGKGLEWVAVIWYEGSDKYYADSVKGRFTISRDNSKNTLYLQMNSLRAEDTAVYYCARDSSWGFLLYGMDVWGQGTTVTVSS
# VL: DVVMTQSPLSLPVTLGQPASISCRSSRSLEYSDGNTYLNWFQQRPGQSPRRLIYKVSNRDSGVPDRFSGSGSGTAFTLKISGVEAEDVGVYYCMQGTHWPPTFGGGTKVEIK
# notes: as for B2
# Target: T1, ΔCRD2-TNFR2 protein (with CRD2 …)
# Experiment: FACS on CHO-S cells with ΔCRD2-TNFR2, AF647 anti-human IgG Fc secondary
# Excerpt: TNFR2 has four cysteine rich domains (CRD). In another experiment, FACS was used to detect the binding of anti-hTNFR2 antibodies to TNFR2 proteins with different structural domains. Secondary antibody (Alexa Fluor® 647 AffiniPure F(ab′) 2 Fragment Goat Anti-Human IgG, Fcγ fragment specific, Jackson ImmunoResearch Laboratories, Inc., Cat #: 151524) was used. The fluorescence-labeled secondary antibody can attach to the Fc region of the anti-hTNFR2 antibodies so that the anti-hTNFR2 antibodies that are bound to the ΔCRD cells can be detected by FACS. Specifically, ΔCRD1-TNFR2 protein (with CRD1 deleteion), ΔCRD2-TNFR2 protein (with CRD2 deleteion), ΔCRD3-TNFR2 protein (with CRD3 deleteion) or ΔCRD4-TNFR2 protein (with CRD4 deleteion) were expressed in CHO-S cells respectively, and then the binding between the cells and different anti-hTNFR2 antibodies was detected.
row,Binder,positive rate of binding (% of cells)
1,B1,71.2%
2,B2,59.1%
3,B3,65.7%
4,B4,80.3%

# Target: T2, human TNFR2 (expressed on cells)
# Experiment: flow cytometry competition, CHO cells with human TNFR2, antibody 10 µg/mL, Biotin-hTNFα 0.5 µg/mL
# Procedure: (§1) 30 μl of Biotin-hTNFα (Acro Biosystems, Cat #: TNA-H82E1) was added to each well (with a final concentration of 0.5 μg/mL in each well). The cells with Biotin-hTNFα and the antibodies were incubated at 4° C. for 30 minutes.
# (§2) The signals for AF647 and PE were determined by flow cytometry (Thermo Attune NX).
row,Binder,percentage of tested cells that had Streptavidin signals
1,B5,75.1%
2,B1,12%
3,B2,18.5%
4,B3,51.9%
5,B4,71.1%

# Target: T3, mouse TNFR2 (on transfected CHO cells)
# Experiment: flow cytometry on transfected CHO cells
# Procedure: (§3) 30 μl CHO cells (1×10⁵ cells) were added to each well. 30 μl purified anti-TNFR2 antibodies (10 μg/mL) (as listed in Table 4) were added to each well and were incubated at 4° C. for 30 minutes.
# (§4) After two washes with PBS (1600 rmp, 6 min), 50 μl of Alexa Fluor labeled anti-human IgG Fc antibody […] was added into each well 1:500 dilution, incubated at 4° C. for 15 minutes, followed by a PBS wash (1200 rmp, 5 min). The signals for AF647 were detected by flow cytometry.
row,Binder,binding result
1,B5,no binding (tested: 10 µg/mL)
2,B1,no binding (tested: 10 µg/mL)
3,B2,no binding (tested: 10 µg/mL)
4,B3,no binding (tested: 10 µg/mL)
5,B4,no binding (tested: 10 µg/mL)

# Target: T4, dog (Canine) TNFR2 (on transfected CHO …)
# Experiment: flow cytometry on transfected CHO cells
# Procedure: as §3, §4
row,Binder,binding result
1,B5,no binding (tested: 10 µg/mL)
2,B1,no binding (tested: 10 µg/mL)
3,B2,no binding (tested: 10 µg/mL)
4,B3,no binding (tested: 10 µg/mL)
5,B4,no binding (tested: 10 µg/mL)

# Target: T2, human TNFR2 (expressed on cells)
# Experiment: flow cytometry competition, CHO cells with human TNFR2, antibody 2.5 µg/mL, Biotin-hTNFα 0.5 µg/mL
# Procedure: as §1, §2
row,Binder,percentage of tested cells that had Streptavidin signals
1,B5,87.2%
2,B1,29.9%
3,B2,59.5%
4,B3,54.5%
5,B4,81.5%
